We go through seven molecules from patent US20240228658A1.

Experiment [1] has as its target T1, h5T4-His (cat #19845-H08H, Sino Biological) (human) (UniProt Q13641).
T1 sequence (looked up): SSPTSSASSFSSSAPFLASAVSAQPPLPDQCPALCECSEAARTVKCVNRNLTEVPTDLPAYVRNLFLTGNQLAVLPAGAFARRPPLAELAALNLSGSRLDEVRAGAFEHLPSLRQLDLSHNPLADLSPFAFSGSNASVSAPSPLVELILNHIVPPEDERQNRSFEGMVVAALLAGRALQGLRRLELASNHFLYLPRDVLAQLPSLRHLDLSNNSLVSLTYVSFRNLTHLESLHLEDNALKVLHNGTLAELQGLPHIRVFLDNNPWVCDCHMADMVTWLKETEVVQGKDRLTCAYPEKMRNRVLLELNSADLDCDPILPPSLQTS
The experiment can be described thus: ELISA, coated h5T4-His. (An ELISA detects its analyte on a solid surface through an enzyme-linked reagent.)

Experiment [2] concerns the target T2, human 5T4 on cells (human) (UniProt Q13641).
T2 sequence (looked up): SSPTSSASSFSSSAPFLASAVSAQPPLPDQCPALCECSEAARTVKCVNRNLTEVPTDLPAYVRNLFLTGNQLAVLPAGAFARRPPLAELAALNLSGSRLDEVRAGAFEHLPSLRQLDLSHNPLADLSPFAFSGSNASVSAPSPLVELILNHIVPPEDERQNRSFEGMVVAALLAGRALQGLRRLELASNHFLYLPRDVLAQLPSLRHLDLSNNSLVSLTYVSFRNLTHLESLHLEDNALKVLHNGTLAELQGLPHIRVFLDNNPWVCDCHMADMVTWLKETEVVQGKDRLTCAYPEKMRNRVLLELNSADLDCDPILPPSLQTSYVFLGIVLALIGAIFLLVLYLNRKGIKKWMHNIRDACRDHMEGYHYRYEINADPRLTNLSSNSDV
Nature of the experiment: FACS, CHO cells over expressing human 5T4. In general terms: A flow cytometer gives signals particle by particle.

Experiment [3] addresses T2, human 5T4 on cells (human). Nature of the experiment: FACS, NCI-H226 cells.
In experiment [4] the target is T2, human 5T4 on cells (human). The experiment can be described thus: FACS on CHO cells over expressing 5T4.
The target in experiment [5] is T2, human 5T4 on cells (human). The experiment can be described thus: FACS on NCI-H226 cells (endogenous 5T4).
The target in experiment [6] is T2, human 5T4 on cells (human). Nature of the experiment: cell-based or functional assay.

Numbering of substitutions follows the chain as printed.

B1: CD3X5T4_cl-16XNKG2A (protein, part only; not given: anti-CD3 Fab, anti-NKG2A scFv, linkers, not shown: another chain or arm of the molecule; small tags and cut ends)
VH: AVQLQQSGPVRVKPGASVKMSCKASGYPFTDYYMNWVKQSHGRSLDWIGVFNPYNGDTRYTQKFKDKATLTIDKSSSTAYMELNSLTSEDSAVYYCARLRLLYDTSEYYVMDYWGQGTSVTVSS
VL: ENVLTQSPAIMSASPGEKVTMTCSASSSVNYMHWYQQKSNTSPKLWIYDTSKLASGVPGRFSGSGSGNSYSLTISSMEAEDVATYFCFQGSGYPYTFGGGTKLEIK
A word on the EC50 (read off the curve): it is the concentration at which the effect is half-maximal. On to B1, for which the EC50 (read off the curve) in experiment [1] stood at 40 nM; in experiment [2] it was 3 nM; in experiment [3], 6 nM.

B2: IM-1178 Tribody (CD3x5T4_IM24xNKG2D) (protein, part only; not given: anti-CD3 Fab, anti-NKG2D scFv, linkers, not shown: another chain or arm of the molecule; small tags and cut ends)
VH: QVQLVQSGAEVKKPGASVKLTCTASGYTFTAYYMHWMRQAPGQGLEWMGIVLPGRGSTNYAQKFQGRVTVTRDTSTNTVYMELNSLTSEDTAVYYCVRGYRDFDYWGPGTLVTVSS
VL: ELVLTQSPATLSLSPGERATLSCKASQNVGTAVAWYQQKPGQAPRLLIYSASNRYTGIPARFSGSGSGTDFTLTVSSLEPEDFAVYYCQQYTSYPRTFGQGTKVEIK
The term EC50 denotes the concentration that produces a half-maximal response. Low values mean a more potent agent, high ones a less potent agent. For B2, the EC50 is 1.4 nM in experiment [4] and 1.24 nM in experiment [5].

B3: IM-1222 Tribody (5T4_IM53-CD3-NKG2A) (protein, part only; not given: anti-CD3 Fab, anti-NKG2A scFv, linkers, not shown: another chain or arm of the molecule; small tags and cut ends)
VH: QVQLVQSGAEVKKPGASVKVSCKASGYTFTDYYMNWVRQAPGRGLEWMGVFNPYNGDTRYTQKFKDRVTMTIDKSISTAYMELSRLRSDDTAVYYCARLRLLYDTSEYYVMDYWGQGTTVTVSS
VL: ENVLTQSPATLSLSPGERATLSCSASSSVNYMHWYQQKPGQSPRLLIYDTSKLASGIPARFSGSGSGTDYTLTISSLEPEDFAVYFCFQGSGYPYTFGGGTKVEIK
Turning to B3, the EC50 in experiment [4] was determined as 2.3 nM; in experiment [5], 3.9 nM. In experiment [6], this molecule had a T cells mediated cytotoxicity (lactate dehydrogenase assay), EC50 of 0.02 nM.

B4: CD3x5T4-IM50xNKG2A (protein, part only; not given: anti-CD3 Fab, anti-NKG2A scFv, linkers, not shown: another chain or arm of the molecule; small tags and cut ends)
VH: B3 VH with T28P, M48I, R67K, V68A, M70L, S84N
VL: B3 VL with S42A, F86Y
The molecule B4 had an EC50 (read off the curve) in experiment [2] of 5 nM.

B5: CD3x5T4-IM51xNKG2A (protein, part only; not given: anti-CD3 Fab, anti-NKG2A scFv, linkers, not shown: another chain or arm of the molecule; small tags and cut ends)
VH: B3 VH with R43Q, I72R, K74T
VL: B3 VL
Molecule B5 came in with a half-maximal effective concentration (EC50 (read off the curve)) in experiment [2] of 5 nM.

B6: CD3x5T4-IM49xNKG2A (protein, part only; not given: anti-CD3 Fab, anti-NKG2A scFv, linkers, not shown: another chain or arm of the molecule; small tags and cut ends)
VH: QVQLVQSGAEVKKPGASVKVSCKASGYTFTDYYMNWVRQAPGRGLEWIGVFNPYNGDTRYTQKFKDRATLTIDKSISTAYMELSRLRSDDTAVYYCARLRLLYDTSEYYVMDYWGQGTTVTVS
VL: B3 VL with S42A, F86Y
As to B6, the EC50 (read off the curve) in experiment [2] was 5 nM.

B7: CD3x5T4-IM34xNKG2A (protein, part only; not given: anti-CD3 Fab, anti-NKG2A scFv, linkers, not shown: another chain or arm of the molecule; small tags and cut ends)
VH: B3 VH with Q1A, R43Q, R67K, I76T, A79V, S84N, R85S, D89E
VL: B3 VL with S42A, T68N, Y70F, F86Y
On to B7, for which, in experiment [2], the EC50 (read off the curve) was 6 nM.
